Values of other authors, collected in publication PMC7294537.

Assays:
[1] = biological target: lysozyme (Gallus gallus) (UniProt P00698)
[2] = biological target: CUE domain CUE (Saccharomyces cerevisiae) (UniProt P36075)
CUE domain CUE (Saccharomyces cerevisiae), sequence (P36075 8-51): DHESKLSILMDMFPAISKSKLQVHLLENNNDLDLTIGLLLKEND

lysozyme, sequence (P00698 19-147): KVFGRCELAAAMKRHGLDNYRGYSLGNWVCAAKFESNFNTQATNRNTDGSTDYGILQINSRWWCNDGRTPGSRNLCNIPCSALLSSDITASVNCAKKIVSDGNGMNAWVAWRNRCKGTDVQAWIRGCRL
ubiquitin, sequence (P0CG63 1-76): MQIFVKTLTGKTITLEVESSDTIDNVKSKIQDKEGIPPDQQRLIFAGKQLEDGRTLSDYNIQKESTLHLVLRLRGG

| Kd [1] [µM] | Kd [2] [µM] | Substance |
| --- | --- | --- |
| 2710 | – | lysozyme (from UniProt P00698) |
| – | 155 | ubiquitin (from UniProt P0CG63) |
